In publication PMC9156758:

What was measured:
[1] = biological target: A2ML1-CC (TEV-P-cleaved A2ML1t with covalently conjugated TEV-P) (human | tobacco etch virus) (UniProt A8K2U0); assay: cryo-EM structure; TEV-P-cleaved A2ML1t samples on grids; monomers and dimers separated by 2D classification, multi-class ab initio reconstruction and heterogeneous refinement
[2] = biological target: TEV-P-cleaved A2ML1t prepared in the presence of BAPN, without conjugated TEV-P (human) (UniProt A8K2U0); assay: as above

Chain of TEV-P-cleaved A2ML1t prepared in the presence of BAPN, without conjugated TEV-P (A8K2U0 19-1454): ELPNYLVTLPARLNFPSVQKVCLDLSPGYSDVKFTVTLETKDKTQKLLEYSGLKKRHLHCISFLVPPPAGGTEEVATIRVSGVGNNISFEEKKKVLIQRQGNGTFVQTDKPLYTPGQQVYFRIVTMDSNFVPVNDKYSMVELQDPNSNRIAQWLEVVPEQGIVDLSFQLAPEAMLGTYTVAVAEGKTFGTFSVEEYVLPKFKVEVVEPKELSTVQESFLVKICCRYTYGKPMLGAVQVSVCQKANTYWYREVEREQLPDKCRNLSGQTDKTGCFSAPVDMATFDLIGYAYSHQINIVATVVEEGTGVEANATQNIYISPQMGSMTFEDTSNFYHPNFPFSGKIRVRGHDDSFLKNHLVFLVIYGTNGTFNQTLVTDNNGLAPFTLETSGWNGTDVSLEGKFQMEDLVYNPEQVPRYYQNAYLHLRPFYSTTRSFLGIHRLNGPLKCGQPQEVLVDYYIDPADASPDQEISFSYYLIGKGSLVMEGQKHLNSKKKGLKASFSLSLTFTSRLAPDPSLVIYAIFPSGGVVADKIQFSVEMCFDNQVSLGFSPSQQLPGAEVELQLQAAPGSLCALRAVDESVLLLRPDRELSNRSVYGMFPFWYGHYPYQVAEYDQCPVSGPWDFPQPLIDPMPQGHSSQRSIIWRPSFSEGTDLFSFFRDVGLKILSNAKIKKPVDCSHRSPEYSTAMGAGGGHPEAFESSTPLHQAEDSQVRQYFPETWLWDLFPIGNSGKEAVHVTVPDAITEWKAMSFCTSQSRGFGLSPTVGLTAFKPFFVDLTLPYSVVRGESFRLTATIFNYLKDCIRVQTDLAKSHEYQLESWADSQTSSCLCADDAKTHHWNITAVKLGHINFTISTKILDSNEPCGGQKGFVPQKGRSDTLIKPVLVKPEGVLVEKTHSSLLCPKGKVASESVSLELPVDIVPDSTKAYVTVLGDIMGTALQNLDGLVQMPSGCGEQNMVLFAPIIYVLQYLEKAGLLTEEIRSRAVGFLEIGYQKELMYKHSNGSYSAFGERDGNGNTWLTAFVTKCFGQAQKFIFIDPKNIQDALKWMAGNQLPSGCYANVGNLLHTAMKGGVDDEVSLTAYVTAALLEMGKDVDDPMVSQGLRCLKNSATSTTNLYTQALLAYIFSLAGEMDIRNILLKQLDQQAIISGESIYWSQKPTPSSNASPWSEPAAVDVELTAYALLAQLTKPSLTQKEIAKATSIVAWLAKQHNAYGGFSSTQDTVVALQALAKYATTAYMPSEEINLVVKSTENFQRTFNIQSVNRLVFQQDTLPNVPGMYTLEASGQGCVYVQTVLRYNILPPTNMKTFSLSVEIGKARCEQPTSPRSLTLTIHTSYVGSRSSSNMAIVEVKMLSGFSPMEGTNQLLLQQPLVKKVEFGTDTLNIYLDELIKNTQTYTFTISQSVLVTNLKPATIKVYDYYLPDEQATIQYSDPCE
Chain of TEV-P-cleaved A2ML1t prepared in the presence of BAPN, without conjugated TEV-P (A8K2U0 19-1454): as above
Chain of A2ML1-CC (TEV-P-cleaved A2ML1t with covalently conjugated TEV-P) (A8K2U0 whole entry, looked up, one chain of several): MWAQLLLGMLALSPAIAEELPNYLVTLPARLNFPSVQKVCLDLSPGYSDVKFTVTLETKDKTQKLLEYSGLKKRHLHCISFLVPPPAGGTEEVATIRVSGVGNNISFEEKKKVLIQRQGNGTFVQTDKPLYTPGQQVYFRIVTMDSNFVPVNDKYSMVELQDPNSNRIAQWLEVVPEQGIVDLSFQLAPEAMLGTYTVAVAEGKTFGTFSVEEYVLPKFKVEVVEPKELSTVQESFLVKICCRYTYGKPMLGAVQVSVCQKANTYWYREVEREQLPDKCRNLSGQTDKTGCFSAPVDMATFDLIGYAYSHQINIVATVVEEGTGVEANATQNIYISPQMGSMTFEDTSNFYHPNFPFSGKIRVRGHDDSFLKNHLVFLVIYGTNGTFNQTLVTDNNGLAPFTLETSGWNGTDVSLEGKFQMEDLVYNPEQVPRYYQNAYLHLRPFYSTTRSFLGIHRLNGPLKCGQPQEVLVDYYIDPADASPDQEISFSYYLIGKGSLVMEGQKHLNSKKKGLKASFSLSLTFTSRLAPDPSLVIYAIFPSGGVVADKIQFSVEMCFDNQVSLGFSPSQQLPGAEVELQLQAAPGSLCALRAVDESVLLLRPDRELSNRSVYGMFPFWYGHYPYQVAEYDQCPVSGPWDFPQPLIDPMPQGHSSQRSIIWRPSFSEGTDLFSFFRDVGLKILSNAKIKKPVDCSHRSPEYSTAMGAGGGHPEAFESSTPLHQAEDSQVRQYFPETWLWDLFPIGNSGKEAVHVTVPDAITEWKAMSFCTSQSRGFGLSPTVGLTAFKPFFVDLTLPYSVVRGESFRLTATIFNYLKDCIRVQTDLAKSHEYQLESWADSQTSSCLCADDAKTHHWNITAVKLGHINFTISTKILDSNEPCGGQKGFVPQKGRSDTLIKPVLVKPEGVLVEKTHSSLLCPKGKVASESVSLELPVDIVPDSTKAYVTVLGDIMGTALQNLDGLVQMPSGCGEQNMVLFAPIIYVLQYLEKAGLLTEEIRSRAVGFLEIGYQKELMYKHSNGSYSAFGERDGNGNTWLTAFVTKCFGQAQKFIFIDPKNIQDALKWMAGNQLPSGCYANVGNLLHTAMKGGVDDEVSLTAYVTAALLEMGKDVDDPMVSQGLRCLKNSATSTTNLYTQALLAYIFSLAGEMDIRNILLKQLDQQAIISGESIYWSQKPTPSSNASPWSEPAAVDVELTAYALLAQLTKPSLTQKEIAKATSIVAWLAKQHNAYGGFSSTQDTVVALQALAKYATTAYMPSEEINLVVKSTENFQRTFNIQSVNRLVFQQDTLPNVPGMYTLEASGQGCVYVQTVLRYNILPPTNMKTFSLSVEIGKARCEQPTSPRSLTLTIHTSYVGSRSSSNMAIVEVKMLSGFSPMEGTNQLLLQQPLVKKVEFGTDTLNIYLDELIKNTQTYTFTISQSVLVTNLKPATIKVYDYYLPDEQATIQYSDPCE

| fraction of picked particles that were dimers (fraction of particles) [2] | stoichiometry N [2] | Substance | fraction of picked particles that were dimers (fraction of particles) [1] |
| --- | --- | --- | --- |
| – | – | A2ML1-CC (TEV-P-cleaved A2ML1t with covalently conjugated TEV-P) (from UniProt A8K2U0 19-1454; A8K2U0 19-1454) (complex) | 0.167 |
| 0.167 | 2 | TEV-P-cleaved A2ML1t prepared in the presence of BAPN, without conjugated TEV-P (from UniProt A8K2U0 19-1454; A8K2U0 19-1454) | – |
